Data on eight molecules can be found in PMC5701058, “Structure of Rap1b bound to talin reveals a pathway for triggering integrin activation” (Nature Communications, 2017).

Residue numbers refer to the chain shown, from its start. In names and notes the source's numbering stands.

Sequences and labels used below:
T1: Rap1b (G12V), loaded with GMP-PNP (active form) (human, UniProt P61224 1-184, G12V)
T1 construct: Rap1b, human, with G12V; Loaded with the GTP analog GMP-PNP; Made by mutagenesis; Probably full length; also called active Rap1b; GMP-PNP loaded Rap1b
T1 sequence (looked up): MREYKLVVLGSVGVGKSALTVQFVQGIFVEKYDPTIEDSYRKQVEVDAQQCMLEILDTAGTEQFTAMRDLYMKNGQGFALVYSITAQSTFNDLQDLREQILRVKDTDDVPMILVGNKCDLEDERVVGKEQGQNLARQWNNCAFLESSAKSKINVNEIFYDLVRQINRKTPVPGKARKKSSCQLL

T2: mouse RIAM-RAPH (149–438) (mouse, UniProt Q8R5A3 149-438)
T2 construct: RIAM, mouse, RA-PH domains, residues 149-438
T2 sequence (looked up): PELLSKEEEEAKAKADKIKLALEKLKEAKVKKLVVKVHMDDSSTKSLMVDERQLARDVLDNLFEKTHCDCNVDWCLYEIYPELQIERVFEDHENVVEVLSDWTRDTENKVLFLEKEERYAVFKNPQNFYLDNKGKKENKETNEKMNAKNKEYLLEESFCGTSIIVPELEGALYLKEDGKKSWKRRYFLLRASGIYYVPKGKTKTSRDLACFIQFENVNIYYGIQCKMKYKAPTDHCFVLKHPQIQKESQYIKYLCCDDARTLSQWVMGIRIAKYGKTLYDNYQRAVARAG

B1: mouse RIAM-RAPH (149–438) (domain or fragment)
chain: T2 sequence (looked up)
B2: mouse talin-F0 (1–86) (domain or fragment, UniProt P26039 1-86, looked up)
chain: MVALSLKISIGNVVKTMQFEPSTMVYDACRMIRERIPEALAGPPNDFGLFLSDDDPKKGIWLEAGKALDYYMLRNGDTMEYRKKQR
notes: talin (talin-1), mouse, F0 domain, residues 1-86; Isotope labelled or unlabelled as the NMR sample needed; also called F0 domain of talin
B3: mouse talin-H (1–429) (domain or fragment, UniProt P26039 1-429, looked up)
chain: MVALSLKISIGNVVKTMQFEPSTMVYDACRMIRERIPEALAGPPNDFGLFLSDDDPKKGIWLEAGKALDYYMLRNGDTMEYRKKQRPLKIRMLDGTVKTIMVDDSKTVTDMLMTICARIGITNHDEYSLVRELMEEKKDEGTGTLRKDKTLLRDEKKMEKLKQKLHTDDELNWLDHGRTLREQGVEEHETLLLRRKFFYSDQNVDSRDPVQLNLLYVQARDDILNGSHPVSFDKACEFAGFQCQIQFGPHNEQKHKAGFLDLKDFLPKEYVKQKGERKIFQAHKNCGQMSEIEAKVRYVKLARSLKTYGVSFFLVKEKMKGKNKLVPRLLGITKECVMRVDEKTKEVIQEWSLTNIKRWAASPKSFTLDFGDYQDGYYSVQTTEGEQIAQLIAGYIDIILKKKKSKDHFGLEGDEESTMLEDSVSPKKS
notes: talin (talin-1), mouse, head domain, residues 1-429; Talin-H was cloned into pET28t and into pGST-1; also called talin head domain
B4: C-terminal truncated Rap1b (1–167, G12V), loaded with GMP-PNP (domain or fragment, human, UniProt P61224 1-167, looked up)
chain: MREYKLVVLGSVGVGKSALTVQFVQGIFVEKYDPTIEDSYRKQVEVDAQQCMLEILDTAGTEQFTAMRDLYMKNGQGFALVYSITAQSTFNDLQDLREQILRVKDTDDVPMILVGNKCDLEDERVVGKEQGQNLARQWNNCAFLESSAKSKINVNEIFYDLVRQINR
notes: Rap1b, human, residues 1-167, G12V, in pET28t; Loaded with GMP-PNP; isotope labelled or unlabelled as the NMR sample needed; The removal of the tag is told for the assignment samples; not shown: His6, N-terminal, cleaved
B5: GFP-Rap1b (G12V), loaded with GMP-PNP (natural protein, human, UniProt P61224 1-184, looked up)
chain: T1 sequence (looked up)
notes: Rap1b (G12V) in a pRSET vector; The name puts GFP first, the methods call it a C-terminal GFP fusion tag; also called GMP-PNP-loaded GFP-Rap1b (G12V); not shown: GFP, C-terminal, kept
B6: membrane-anchored Rap1b_TM2 (G12V, C51S, C118S, C141S), loaded with GMP-PNP (natural protein, human, UniProt P61224 1-184, looked up)
chain: T1 sequence (looked up) with C51S, C118S, C141S
modifications: thiol group of Cys 180 joined to the maleimide group of the lipid PE MCC in vesicles
notes: Rap1b, human, with G12V, C51S, C118S, C141S; holds the C-terminal Cys 180 (so in the source); LUVs: 96% POPC, 1% PIP2, 3% PE MCC; MLVs: 87% POPC, 10% PIP2, 3% PE MCC; also called LUV-Rap1b; LUV-Rap1b (GMP-PNP); source: E. coli BL21 (DE3), purified, then tethered to vesicles (LUVs or MLVs) by thiol-maleimide crosslinking
B7: Rap1b (G12V), GMP-PNP loaded, of the GST pull-down of Fig. 3b (natural protein, human, UniProt P61224 1-184, looked up)
chain: T1 sequence (looked up)
notes: human full-length Rap1b in a pGST-1 vector, with G12V as the active form; also called active Rap1b

The target of experiment [1] is membrane-anchored Rap1b_TM2 (G12V, C51S, C118S, C141S), loaded with GMP-PNP (human) (UniProt P61224). The experiment can be described thus: co-sedimentation; vesicle co-sedimentation: 10 μM talin-H or full-length talin with 10 μM MLV-Rap1b, MLV only or MLV + Rap1b; RT 15 min, 22,000 r.p.m. 35 min; pellet on SDS-PAGE, band normalized to MLV only.
For experiment [2], the target named is T3, GFP-Rap1b (G12V), loaded with GMP-PNP (human, UniProt P61224 1-184, G12V). The experiment can be described thus: MST; GMP-PNP loaded.
The target of experiment [3] is T1, Rap1b (G12V), loaded with GMP-PNP …. Kind of experiment: NMR titration; HSQC titration of 45 μM 15N-labeled talin-F0 with increasing GMP-PNP-loaded Rap1b (G12V); average Kd of four residues. As to conditions: both partners purified.
Experiment [4] addresses membrane-anchored Rap1b_TM2 (G12V, C51S, C118S, C141S), loaded with GMP-PNP (human, UniProt P61224 1-184, G12V | C51S | C118S | C141S, thiol group of Cys 180 joined to the maleimide group of the lipid PE MCC in vesicles). Kind of experiment: ITC; LUV-anchored Rap1b, GMP-PNP; 2nd experiment.
The target in experiment [5] is T3, GFP-Rap1b (G12V), loaded with GMP-PNP. Kind of experiment: MST; GMP-PNP loaded; estimated, saturation not reached.
The target of experiment [6] is B6. Kind of experiment: co-sedimentation; vesicle co-sedimentation: 10 μM talin-H or full-length talin with 10 μM MLV-Rap1b, MLV only or MLV + Rap1b; RT 15 min, 22,000 r.p.m. 35 min; pellet on SDS-PAGE, band normalized to MLV only. Conditions: both partners purified.
Experiment [7] addresses B3. Kind of experiment: NMR titration; 2D HSQC of 45 μM GMP-PNP loaded 15N-labeled Rap1b (1–167) without and with 90 or 225 μM talin-F0, 90 μM talin-H or 45 μM full-length talin; 25 °C; 25 mM NaH2PO4/Na2HPO4 pH 6.8, 150 mM NaCl, 5 mM MgCl2, 2 mM DTT. Conditions: both partners purified.
Experiment [8] concerns the target T4, mouse full-length talin (mouse, UniProt P26039 1-2541).
T4 construct: talin (talin-1), mouse, full length, in pET28t
The description is as above. Conditions: both partners purified.

Experiment [9] has as its target T2, mouse RIAM-RAPH (149–438). Kind of experiment: MST; 100 nM GFP-Rap1b (G12V) with serial dilutions of the partner; 50 mM Tris-HCl pH 7.5, 100 mM NaCl, 5 mM MgCl2, 2 mM DTT, 0.05% Tween 20; RT. As to conditions: both partners purified.
In experiment [10] the target is B3. Kind of experiment: ITC; 200 μM talin-H in the syringe into 15 μM LUV-Rap1b (GMP-PNP) in the cell; 25 °C; 25 mM NaH2PO4/Na2HPO4 pH 6.8, 100 mM NaCl, 5 mM MgCl2; single-site model. As to conditions: both partners purified. For orientation: ITC needs no label: the signal is the heat of the interaction.
The target in experiment [11] is B3. The experiment can be described thus: pull-down; GST pull-down of Fig. 3b, Rap1b with GDP or GTP analog; ~25 μg GST-fused protein on glutathione-Sepharose 4B, 4 °C, 25 mM Tris-HCl pH 7.5, 150 mM NaCl, 5 mM MgCl2, 1 mM DTT, 0.01% NP-40. Conditions: both partners purified.
For experiment [12], the target named is T4, mouse full-length talin. The description is as above. As to conditions: both partners purified.

As for mouse full-length talin, P26039 1-2541, the fold co-sedimentation with vesicles, Rap1b anchored against MLV only in experiment [1] was found to be 3 fold.

For the molecule B1, in experiment [2], the Kd stood at 5.3 µM.

With B2, the values for the Kd in experiment [2] and in experiment [3] were 237 µM and roughly 162 µM, respectively.

Turning to B3, the Kd in [4] is 3.64 µM; in [5] it was roughly 147 µM. Besides, the “fold co-sedimentation with vesicles, Rap1b anchored against MLV only” value in experiment [6] was roughly 1.5 fold.

For B4, the binding result with mouse talin-H (1–429) [7] and with mouse full-length talin [8] was “binds” throughout.

Consider B5, for which the binding result in experiment [9] is reported as “binds”.

B6 displayed a Kd with mouse talin-H (1–429) [10] of roughly 1.52 µM.

As to B7, the binding result in the experiment with mouse talin-H (1–429) [11] and in the experiment with mouse full-length talin [12] was “binds” throughout.

By Kd is commonly meant the equilibrium constant for the complex coming apart.
